Measured values: article PMC7531515

Experiments:
roledumab (human) [1] = assay: SEC + native MS
roledumab (human) [2] = assay: native MS
[3] = target: F(ab’)2 fragment of roledumab (IdeS digestion) (human); assay: SEC + native MS
[4] = target: F(ab’)2 fragment of roledumab (IdeS digestion) (human); assay: native MS
[5] = target: Fab fragment of roledumab (IgdE digestion) (human); assay: SEC + native MS
[6] = target: Fab fragment of roledumab (IgdE digestion) (human); assay: native MS

B1: roledumab (antibody, V domains shown)
VH: QVQLVESGGGVVQPGRSLRLSCTASGFTFKNYAMHWVRQAPAKGLEWVATISYDGRNIQYADSVKGRFTFSRDNSQDTLYLQLNSLRPEDTAVYYCARPVRSRWLQLGLEDAFHIWGQGTMVTVSS
VL: AIRMTQSPSSFSASTGDRVTITCRASQDIRNYVAWYQQKSGKAPKFLIYAASTLQSGVPSRFSGSGSGTDFTLTINSLQSEDFATYYCQQYYNSPPTFGQGTRVEIT
relative abundance of dimer peak 1 (UV) (roledumab (human) [1]): 46%
relative abundance of dimer peak 2 (UV) (roledumab (human) [1]): 32%
relative abundance of dimer peak 3 (UV) (roledumab (human) [1]): 13%
stoichiometry N (roledumab (human) [1]): 2
percent HMW species in the isolated HMW fraction (SEC): 85% of HMW species (peak 2)
relative abundance of dimer peak 2 (UV) (roledumab (human) [2]): 20%
relative abundance of dimer peak 3 (UV) (roledumab (human) [2]): 13%
relative abundance of dimer peak 4 (UV) (roledumab (human) [2]): 65%
stoichiometry N (roledumab (human) [2]): 2

B2: F(ab’)2 fragment of roledumab (IdeS digestion) (domain or fragment)
VH: B1 VH
VL: B1 VL
relative abundance of F(ab’)2 dimer peak 1 (UV) [3]: 32%
relative abundance of F(ab’)2 dimer peak 2 (UV) [3]: 16%
relative abundance of F(ab’)2 dimer peak 3 (UV) [3]: 8%
stoichiometry N [3]: 2
relative abundance of F(ab’)2 dimer (UV) [4]: 54%
stoichiometry N [4]: 2

B3: Fab fragment of roledumab (IgdE digestion) (Fab, V domains shown)
VH: B1 VH
VL: B1 VL
stoichiometry N [5]: 2
relative abundance of Fab dimers (UV) [6]: 10%
stoichiometry N [6]: 2
